Experimental findings from publication PMC7660905 are described below.

The target of experiment [1] is D25 IgG (human monoclonal antibody to site Ø of PreF) (human). The experiment is described as follows: SPR; Biacore T200, single cycle kinetics, IgG captured ([…]; 25 °C, HBS-EP; 1:1 binding model. For orientation: SPR reads the build-up and loss of mass on a sensor chip optically.
For experiment [2], the target named is AM14. Kind of experiment: SPR. The note with it: read off a plot; for Kd: parent: est. 100 pM; for ratio to parent: parent: est. 1.0.
Experiment [3] has as its target D25 (human monoclonal antibody to site Ø of PreF). The experiment is described as follows: SPR. As to conditions: read off a plot; for Kd: parent: est. 54 pM; for ratio to parent: parent: est. 1.0.
The target of experiment [4] is D25 IgG (human monoclonal antibody to site Ø of PreF) (human). The experiment is described as follows: SPR; Biacore T200, single cycle kinetics, IgG captured (100-200 RU) by human Fc binder on a CM5 chip; PreF injected at 0-20 nM, 120 s association, 600 s dissociation; 25 °C, HBS-EP; 1:1 binding model.

The Kd is a measure of binding affinity in units of concentration. By koff is commonly meant the rate constant with which the complex falls apart. As a reminder, the kon is a measure of how fast the partners come together.

Substance “DS-Cav1 (prefusion-stabilized RSV fusion glycoprotein F), trimeric PreF (from UniProt P03420) (complex)” displayed a dissociation constant (Kd) in experiment [1] of 53.4 pM.
In the case of “DS-Cav1 (stabilized prefusion RSV glycoprotein F) (from UniProt P03420) D200N”, in experiment [2], the Kd stood at 120 pM and the ratio to parent turned out to be 1.2. In addition, in experiment [3], the Kd came out at 22 pM and the ratio to parent was determined as 0.4.
For “DS-Cav1 (stabilized prefusion RSV glycoprotein F) (from UniProt P03420) D200N; N276S” the same measures were 94 pM, 0.95, 57 pM and 1.
“DS-Cav1 (stabilized prefusion RSV glycoprotein F) (from UniProt P03420) K65A”: in experiment [2], the Kd was found to be 88 pM. Moreover, in experiment [3], the Kd is 42 pM and the ratio to parent was 0.75.
Turning to “DS-Cav1 (stabilized prefusion RSV glycoprotein F) (from UniProt P03420) N63A”, in experiment [2], the dissociation constant Kd is 94 pM and the ratio to parent came out at 0.95. In experiment [3], the Kd is 25 pM and the ratio to parent stood at 0.45.
With “DS-Cav1 (stabilized prefusion RSV glycoprotein F) (from UniProt P03420) N63A; K65A”, the Kd in experiment [2] turned out to be 83 pM. In addition, in experiment [3], the Kd is 16 pM and the ratio to parent was 0.3.
For the substance “DS-Cav1 (stabilized prefusion RSV glycoprotein F) (from UniProt P03420) N276S”, in experiment [2], the Kd was determined as 78 pM and the ratio to parent was 0.75. Also, in experiment [3], the Kd was found to be 21 pM and the ratio to parent turned out to be 0.4.
As to monomeric form of PreF, in experiment [4], the Kd stood at 97.7 pM, the koff worked out at 3.75e-05 s⁻¹ and the kon stood at 384000 M⁻¹ s⁻¹.
